Test: yeast display, Sf9 membrane polyspecificity reagent, FACS + sequencing; frameworks hold sequencing errors
How it was run: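 A synthetic nanobody library was expressed on Saccharomyces cerevisiae BJ5465 by galactose induction for 36–48 hours. The library was stained for 1 hour at 4 °C with 10% biotinylated, detergent-solubilized Sf9 membrane reagent and enriched with streptavidin microbeads before FACS. Low and high (top ~1%) gates were set on anti-HA fluorescence for expression and streptavidin fluorescence for reagent binding, and each polyreactivity label reflects the gate of origin.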

Sequence | polyreactivity (PSR sort gate)
QVQLVESGGGLVQAGGSLRLSSAASGFIFFRYARGWYRQEPGKEREFVAAISWSGGRTYYADSVKGRFTISRDNAKNTVYLQMNSLKPEDTAVYYCAAYPSYWGYGYPGHDYWGQGTQVTVSS | high polyreactivity
QVQLVDSGGGLVQAGGSLRLSCAASGFIFSSYAMGWYRQAPGKERELVAAITRSGGRTYYADSVKGRFTISRDNAKNTVYLQMNSLKQEDTAVYYCAAPNGAGYRGDYWGQGTQVTVSS | high polyreactivity
QVQLVESGGGLVQAGGSLRLICAASGRTFDLYAMGWCRQAPGKEREFVAAITKGGGSTYYADSVKGRFTISRDNAKNTVYLQMNSLKPEDTAVYYCAARKYKRIYRISSGIGYYWGQGTQVTVSS | high polyreactivity
QVQLVESGGGLVQAGGSLRISCAASGSTFDIYAMGWYRQAPGKERELVAAISNSGDTYYADSVKGRFTISRDNAKNTVYLQMNSLKPEDTAVYYCNADFHDWFDYWGQGTQVTVSS | high polyreactivity
QVQLVESGGGLVQAGGSLRLSCAASGRTFINYAMGWYRQAPGKERELVAAITTGGRTNYADSVKGRFTISRDNAKNTVYLQMNILKPEDTAVYYCAADRYYWGRYTLNYWGQGTLVTVSS | low polyreactivity
QVQLVESGGGLVQAGGSLRLSCAASGRTFLVYAMGWYRQAPGKERELVAAISYSDGNTYYADSVKGRFTISRDHAKNTVYLQMNSLKPEDTAVYYCNAVTYGYPYDYWGQGTQVTVSS | low polyreactivity
QVLLVESGGGLVQAGGSLRLSCAASGRTFSINAMGWDRQAPGKERELVAAITKRRSTYYADSVKGRFTISRDNAKNSVYLQMNSLKPEDTAVYYCNARYRGRVYDRFGYWGQGTQVTVSS | high polyreactivity
QVQLVESGGGLVQAGGSLRLSCDASGSIFYIYAMGWSRQAPGKERELVATISGSGGSTHYADSVKGRFTISRDNAKNTVYLQMNSLKPEDTAVYYCDADVLPYGYYWGQGTQVTVSS | low polyreactivity
QVQLVESGGGLVQAGGSLPLSCAASGSIFDLYTMGWYRQAPGKEREMVASISSSGGSTYYADSVKGRFTISRDNAKNTVYLQMNSLKPEDTAVYYCAAVASYHAYQYYYWGQGTQVTVSS | high polyreactivity
QVQLVDSGGGLVQAGGSLRLSCAASGRTIRYNAMGWYRQAPGKERELVAVINSNGGSTYYADSVKGRFTISRDNSKNTVYLQMNSLKPEDTAVYYCAADYIRIQEYDYWGQGTQVTVSS | low polyreactivity
QVQLVESGGGLVQAGGSLRLSCAASGSTLTFNAMGWYRQAPWKERELVAAISWSDTDTYYADSVKGRFTISRDNAKNTVYLQMNSLKPEDTAVYYCAATLSAYEMDYWGQATQVTVSS | low polyreactivity
QVQLVESGGRLVQAGGSLRLSCAASGSIFSYYAMGWYRQATGKERELVASISSAGSTNYADSVKGRFTISRDNAKNTVYLQMNSLKPEDTAVYYCNTDDDSSSTGYYSWGQGTQVTVSS | low polyreactivity
QVQLQESGGGLVQAGGSLCLSCAASGTIFFDRDMGWYRQAPGKEREFVAAINPGGSAYYADSVKGRLPLAAITHTVYLQRNSLKPEVTAVYYCAAKLFDVYGYYYWGQGTDVTVSS | low polyreactivity
QVQLVESGGGLVQAGCSLRLSCAASGSTFPYNSMGWYRQAPGKERELVAAITSSGRTNYADSVKGRFTISRDNAKNTVYLQMNSLKPEDTAVYYCAAARWYAHRVDYWGQGTQVTVSS | low polyreactivity
QVHLVESGGGLVQAGGSLRLSCAASGSIFKYNAMGWYRQSPGKERELVAAISSGGSTNYADSVKGRFTISRDNAKNTVYLQMNSLKPEDTAVYYCAKDRRRWYYTRDYWGQGTQVTVSS | low polyreactivity
QVQLVESGGGLVQEGGSLRLSCAASGRTFRINAMGWYRQAPGKERELVAAITSIAGNTYYADSVKGRFTISRDNAKNTVYLQMNSLKPEDTAVYYCAVDSVPWGFRGAYGLTRYYYWGQGTQVTVSS | low polyreactivity
QGQLVESGGALFQAGGSLSLSCAASGRNFKRYAMGRYRQAPGKERELVAAIRTSDGLTYYADSVKGRFTISRDNAENTDYLQMNSLKPEETSVYYCADGYPYYHVYGYGYWGQGTQVTVSS | low polyreactivity
QVQLVESGGGLVQAGGSLRLTCAASGFIFKIYARGWYRQAPGKERELVARITRSGGSTYYADSVKGRFTISRDNAKNTVYLQMNSLKPEDTAVYSCNAELFRYVRYDYWGQGTQVTVSS | high polyreactivity
QVQLVESVGGLVQAGGSLRLSCAASGRTFGRYAMGWYRQAPGKERELVAGISRSGDSTHYADSVKGRFTISRDNAKNTVSLQMNSLKPEDTAVYYCNKETPTIGARKYEYWGQGTQVTVSS | low polyreactivity
QVQLVESGGGLVQAGGSLRLSCAASGSIFRQYAMGWYRQAPGKERELVAAIRRGTSTYYADSVKGRFTISRDNAKNTVYLQMNSLKPEDTAVYYCAKHQHYPHYQPYWSRYDYWGQGTQVTVSS | low polyreactivity
QVQLVESGGGLVKAGGSLRLSCAASGSTFDSYAMGWYRQPPGKERELVASITSNDGSTSYADSVKGRFTISRDNAKNTVYLQMNSLKPEDTAVYYCAASSLYSDYGHRNLADGPYDYWGQGTQVTVSS | low polyreactivity
QVQLVESGGGLVQAGGSLRLSCAASGRIFAYNAMGWYRQAPGKERELVAAITWSGDSTYYADSVKGRFTISRDNAKNSVYLQMNSLKPVDTAVYYCATDALFKTSTRWKYDYWGQGTQVTVSS | low polyreactivity

Sequence | polyreactivity (PSR sort gate)
QVKLVDSGVGLVQAGVSLRLSCAASGSIFGTYAMGWYRQAPGKERELVAAISYRGTSTYYADSVKGRFTISRDNAKNTVYLQMNSLKPEDTAVYYCAARHGYTYRSGYYYWGQGTQVTVSS | high polyreactivity
QVQLVESGGGIVQAGGSLRLSCAASGSIFGFYALGWYRQAPGKERELVAAISNSAGSTFYADSVKGRFTISRDNAKNTVYLQMNSLKPEDTAVYYCAAEGEFSDWQHQYVVYWYDYWGQGTQVTVSS | high polyreactivity
QVQLEESGGGLVQAGGSLRLSCAPSGSIFFYYAMGWYRQAPGKERELVAAITFTGGSTYYADSVKGRFTISRDNANNTVYLQMNSLNPEDTAVSYCAADWYYGDEYEYWGQGTQVTVSS | high polyreactivity
QVQHVESGGGLVQAGGSLRLSCAASGSTFGWYAMGWYRQAPGKVRELVAAITRRGTRTYYADSVKGRFTISRDNAKNTVYLQMNSLKPEDTAVYYCNARGFPGKFGYWGQGTQVTVSS | high polyreactivity
QLQLVESGVGLVQAGGSLRLSCAPSGFTSTYYAMAWYSQAPGKERELVAAITSSGTRTYYADSVKGRFTISRENAKNTVYLQMNSLKPEDTAVYYCNAALRKGMYYWGQGTQVTVSS | high polyreactivity
QVQLVESGGGLVQAGGSLRLSCAASGITFTVNAMGWYRQAPGKERELVAAISNDGSTYYADSVKGRFTISRDNAKNTVYLQMNSLKPEDTAVYYCAADTWDDFGPYGYDYWGQGTQVTVSS | low polyreactivity
QVQLVESGGGLVQAGGSLRLSCAASGSIFNIYAMGWYRQAPGKERELVATITGIADSTYYADSVKGRFTISRDNAKNTVYLQMNSLKPEDTAVYYCNADPSGVFFYSLEFDYWGQGTQVTVSS | low polyreactivity
QDQLVESGGGLVQAGGSLRLICAASGRIFVYYAMGWYRQAPGKERVLVATISSGGSTYYADSVKGRFTISRDNAKNTVYLQMNSLKPEDTAVYYCAADTDNRDLAYYYKGDYWGQGTQVTVSS | low polyreactivity
QEQLEESGGGLVQAGGSLRLSCAASGRIFAAYAKGWYRPAPGKEREVVAGITRTGGSTYYADSVKGRFTISRDNAKNTVYLQMNSLKPEDTAVYYCAARWIWRGYDYWGQGTKVTVSS | high polyreactivity
QVQLVESGGGLVQAGGSLRLSCAASGSTFPGYAMGWYRQAPGKERELVAAINWRGDSTYYADSVKGRFTISRDNAKNTVYLQMNSLKPEDTAVYYCAAKYNHVTDEYDYWGQGTEVTVSS | high polyreactivity
QVQLVESAGGLVQAGGSLRLSCAASGITIVRYARGWSRQAPGKERELVAAINRSGGSTYDADSVKGRFTISRDNAKNTVYLQMNSLKPEDTAVYYCAARLYGKYDPPGYYYWGQGTQVTVSS | high polyreactivity
QVQLVESGGGLVKAGGSLRLSCAATGRIFTYMGWYRQARGKERELVAGISWRGTSTYYADSVKGRFTISRDNAKNSVYLQMNSLKPEDTAVYYCAARWAYHVRGDYWGQGTQVTVSS | low polyreactivity
QVQLVESGGGLVQAGGSLRLSCAASGFIFHKYFMGWYTQAPGKERELVAAISRSGASTYYADSVKGRFTISRDNAKNTVYLQMNSLKPEDTAVYYCAKDYQTYSGSSDFDYWGQGTQVTVSS | high polyreactivity
QVQLVDSGGGLVQAGCSLRLSCAASGRTFSNYAMGWYRQAPGKDRELVAAISWRGGSTYYADSVKGRFTISRDNAKNTVYLQMTSLKPEDTAVYYCAALPRYALGEDYWGQGTQVTVSS | high polyreactivity
QVQLVESGGGLVQAGGSLRLICAASGSISVVNMGWYRQSPGKERELVASITSSGSTTYADSVKGRFTISRDNAKNTVYLQMNSVKPEDTAVYYCASDVGTDYTYQHPAGAAYDYWGQGTQVTVSS | low polyreactivity
QVQLVESGGGLVQAGGSLRLSCAASGRTFAVYAMGWYRQAPGKERELVATINGGGNTNYADSVKGRFTISRDNAKNTVYLQMNSLKPVDTAVYYCAADAWDHWTWFYPTNGMDYWGQGTQVTVSS | low polyreactivity
QVQLVESGGGLVQAGGSLRLSCAASGFIFYRYAMGWYRQAPGNERELVAAISRSGGSTYYADSVKGRFTISRDNAKNTVYLQMNSLKPEDTAVYYCATPGQRKLYLVNYLGQGTQVTVSS | low polyreactivity
QVQLEESGGGLVQAGGSLRLSCAASGSIFAVYAMGWYRHAPGKERELVAAIRSGSRTYYADSVKGRFTISRDNAKNTVYLQMNSLKPEDTAVYYCATTYGTPRYDYWGQGTQVTVSS | high polyreactivity
QDQLVESGGGLVQAGGSLRLTCAASGSTFTLYVMGWYRQAPGKARELVAAISRGDTTNYADSVKGRFTISRDNAKNTVYLQMNSLKPEDTAVYYCAATYPTFFYWSKVYERDYWGQGTQVTVSS | low polyreactivity
QVQLVESGGGLVQAGGSLRLSCAASGSIFQYYVMGWYRQAPGKERELVAAIRRSGTTYYADSVKGRFTISRDNAKNTVYLQMNSLNPEDTAVYYCNKVRGQEPSNYDYWGQGTQVTVSS | low polyreactivity
QVQLVESGGGLVQAGGSLRLSCAASGSTFDVYARGGYRQAPGKERELVAAITSGGTTNYADSVKGRFTLSRDNAKNTVYLQMNSLKPEDTAVYYCAKDSRNVYWDYGYWGQGTQVTVSS | low polyreactivity

From the nanobody polyreactivity screen of Harvey et al. (2022)
